This passage reports fold binding affinity against MQP-37 and Kd results from patent US20230203097A1.

Where no end group is shown, it is not given here.

Assay [1] concerns the target recombinant MAVS protein. The assay is described as follows: fluorescence-labeled peptide titrated on plate-coated recombinant MAVS; ratio of the Kd of MQP-37 to that of MQP-37A6.
Assay [2] has as its target recombinant MAVS protein. The assay is described as follows: fluorescence-labeled peptide titrated on plate-coated recombinant MAVS (250 ng per well), fluorescence read-out.

The Kd is the equilibrium constant for the complex coming apart.

recombinant MAVS protein, sequence (Q7Z434 2-540): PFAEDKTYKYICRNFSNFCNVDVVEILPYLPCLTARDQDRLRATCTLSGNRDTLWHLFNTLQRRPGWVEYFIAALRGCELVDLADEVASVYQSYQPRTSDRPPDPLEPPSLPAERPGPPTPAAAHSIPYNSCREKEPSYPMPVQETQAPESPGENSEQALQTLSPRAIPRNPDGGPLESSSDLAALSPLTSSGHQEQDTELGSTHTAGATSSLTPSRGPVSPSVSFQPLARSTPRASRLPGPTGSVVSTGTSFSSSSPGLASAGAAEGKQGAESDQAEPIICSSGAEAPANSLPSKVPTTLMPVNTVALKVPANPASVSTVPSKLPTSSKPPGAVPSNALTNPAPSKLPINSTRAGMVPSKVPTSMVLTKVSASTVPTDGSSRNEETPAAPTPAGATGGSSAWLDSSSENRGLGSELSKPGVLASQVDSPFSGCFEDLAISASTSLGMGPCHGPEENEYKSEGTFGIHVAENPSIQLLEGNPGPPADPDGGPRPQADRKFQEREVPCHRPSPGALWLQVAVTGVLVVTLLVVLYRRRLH

Consider SLVLAAARW (also: fluorescence-labeled, label and position not given here) [fluorescence-labeled novel alanine-substituted peptide MQP-37A6], for which the fold binding affinity against MQP-37 with recombinant MAVS protein [1] was 20 times. Also, the Kd with recombinant MAVS protein [2] is 0.75 mM.

As for SLVLADARW (also: fluorescence-labeled, label and position not given here) [fluorescence-labeled peptide MQP-37], the Kd with recombinant MAVS protein [2] is 16 mM.
